B1: AS170036 VL1VH1-56Y98Q108S (scFv)
scFv: QSALTQPRSVSGSPGQSVTISCAGTSSDVGSENYVSWYQQHPGKAPKLMIYQVNKRASGVPDRFSGSKSGNTASLTISGLQAEDEADYYCASYRSSDQNIVFGGGTKLTVLGGGGSGGGGSGGGGSEVQLVESGGGLVQPGGSLRLSCAASGFTFSSYAMSWVRQAPGKGLEWVSTINSGTYSPYYADSVKGRFTISRDNSKNTLYLQMNSLRAEDTAVYYCAKNFFDGSWFLSPPAMDYWGQGTLVTVSSHHHHHH
notes: also called 48-AS170036 VL1VH1-56Y98Q108S
B2: AS170036 VL1VH1-57H98F108A (scFv)
scFv: QSALTQPRSVSGSPGQSVTISCAGTSSDVGSENYVSWYQQHPGKAPKLMIYQVNKRASGVPDRFSGSKSGNTASLTISGLQAEDEADYYCASYRSSDFNIVFGGGTKLTVLGGGGSGGGGSGGGGSEVQLVESGGGLVQPGGSLRLSCAASGFTFSSYAMSWVRQAPGKGLEWVSTINSGTGHPYYADSVKGRFTISRDNSKNTLYLQMNSLRAEDTAVYYCAKNFFDGSWFLAPPAMDYWGQGTLVTVSSHHHHHH
notes: also called 58-AS170036 VL1VH1-57H98F108A
B3: AS170036 VL1VH1-57H98F108D (scFv)
scFv: QSALTQPRSVSGSPGQSVTISCAGTSSDVGSENYVSWYQQHPGKAPKLMIYQVNKRASGVPDRFSGSKSGNTASLTISGLQAEDEADYYCASYRSSDFNIVFGGGTKLTVLGGGGSGGGGSGGGGSEVQLVESGGGLVQPGGSLRLSCAASGFTFSSYAMSWVRQAPGKGLEWVSTINSGTGHPYYADSVKGRFTISRDNSKNTLYLQMNSLRAEDTAVYYCAKNFFDGSWFLDPPAMDYWGQGTLVTVSSHHHHHH
notes: also called 59-AS170036 VL1VH1-57H98F108D
B4: AS170036 VL1VH1-57H98F108S (scFv)
scFv: QSALTQPRSVSGSPGQSVTISCAGTSSDVGSENYVSWYQQHPGKAPKLMIYQVNKRASGVPDRFSGSKSGNTASLTISGLQAEDEADYYCASYRSSDFNIVFGGGTKLTVLGGGGSGGGGSGGGGSEVQLVESGGGLVQPGGSLRLSCAASGFTFSSYAMSWVRQAPGKGLEWVSTINSGTGHPYYADSVKGRFTISRDNSKNTLYLQMNSLRAEDTAVYYCAKNFFDGSWFLSPPAMDYWGQGTLVTVSSHHHHHH
notes: also called 60-AS170036 VL1VH1-57H98F108S
B5: AS170036 VL1VH1-57H98I108A (scFv)
scFv: QSALTQPRSVSGSPGQSVTISCAGTSSDVGSENYVSWYQQHPGKAPKLMIYQVNKRASGVPDRFSGSKSGNTASLTISGLQAEDEADYYCASYRSSDINIVFGGGTKLTVLGGGGSGGGGSGGGGSEVQLVESGGGLVQPGGSLRLSCAASGFTFSSYAMSWVRQAPGKGLEWVSTINSGTGHPYYADSVKGRFTISRDNSKNTLYLQMNSLRAEDTAVYYCAKNFFDGSWFLAPPAMDYWGQGTLVTVSSHHHHHH
notes: also called 61-AS170036 VL1VH1-57H98I108A
B6: AS170036 VL1VH1-57H98I108D (scFv)
scFv: QSALTQPRSVSGSPGQSVTISCAGTSSDVGSENYVSWYQQHPGKAPKLMIYQVNKRASGVPDRFSGSKSGNTASLTISGLQAEDEADYYCASYRSSDINIVFGGGTKLTVLGGGGSGGGGSGGGGSEVQLVESGGGLVQPGGSLRLSCAASGFTFSSYAMSWVRQAPGKGLEWVSTINSGTGHPYYADSVKGRFTISRDNSKNTLYLQMNSLRAEDTAVYYCAKNFFDGSWFLDPPAMDYWGQGTLVTVSSHHHHHH
notes: also called 62-AS170036 VL1VH1-57H98I108D
B7: AS170036 VL1VH1-57H98I108S (scFv)
scFv: QSALTQPRSVSGSPGQSVTISCAGTSSDVGSENYVSWYQQHPGKAPKLMIYQVNKRASGVPDRFSGSKSGNTASLTISGLQAEDEADYYCASYRSSDINIVFGGGTKLTVLGGGGSGGGGSGGGGSEVQLVESGGGLVQPGGSLRLSCAASGFTFSSYAMSWVRQAPGKGLEWVSTINSGTGHPYYADSVKGRFTISRDNSKNTLYLQMNSLRAEDTAVYYCAKNFFDGSWFLSPPAMDYWGQGTLVTVSSHHHHHH
notes: also called 63-AS170036 VL1VH1-57H98I108S
B8: AS170036 VL1VH1-57H98Q108A (scFv)
scFv: QSALTQPRSVSGSPGQSVTISCAGTSSDVGSENYVSWYQQHPGKAPKLMIYQVNKRASGVPDRFSGSKSGNTASLTISGLQAEDEADYYCASYRSSDQNIVFGGGTKLTVLGGGGSGGGGSGGGGSEVQLVESGGGLVQPGGSLRLSCAASGFTFSSYAMSWVRQAPGKGLEWVSTINSGTGHPYYADSVKGRFTISRDNSKNTLYLQMNSLRAEDTAVYYCAKNFFDGSWFLAPPAMDYWGQGTLVTVSSHHHHHH
notes: also called 64-AS170036 VL1VH1-57H98Q108A
B9: AS170036 VL1VH1-57H98Q108D (scFv)
scFv: QSALTQPRSVSGSPGQSVTISCAGTSSDVGSENYVSWYQQHPGKAPKLMIYQVNKRASGVPDRFSGSKSGNTASLTISGLQAEDEADYYCASYRSSDQNIVFGGGTKLTVLGGGGSGGGGSGGGGSEVQLVESGGGLVQPGGSLRLSCAASGFTFSSYAMSWVRQAPGKGLEWVSTINSGTGHPYYADSVKGRFTISRDNSKNTLYLQMNSLRAEDTAVYYCAKNFFDGSWFLDPPAMDYWGQGTLVTVSSHHHHHH
notes: also called 65-AS170036 VL1VH1-57H98Q108D
B10: AS170036 VL1VH1-57H98Q108S (scFv)
scFv: QSALTQPRSVSGSPGQSVTISCAGTSSDVGSENYVSWYQQHPGKAPKLMIYQVNKRASGVPDRFSGSKSGNTASLTISGLQAEDEADYYCASYRSSDQNIVFGGGTKLTVLGGGGSGGGGSGGGGSEVQLVESGGGLVQPGGSLRLSCAASGFTFSSYAMSWVRQAPGKGLEWVSTINSGTGHPYYADSVKGRFTISRDNSKNTLYLQMNSLRAEDTAVYYCAKNFFDGSWFLSPPAMDYWGQGTLVTVSSHHHHHH
notes: also called 66-AS170036 VL1VH1-57H98Q108S
B11: AS170036 VL1VH1-57K98F108A (scFv)
scFv: QSALTQPRSVSGSPGQSVTISCAGTSSDVGSENYVSWYQQHPGKAPKLMIYQVNKRASGVPDRFSGSKSGNTASLTISGLQAEDEADYYCASYRSSDFNIVFGGGTKLTVLGGGGSGGGGSGGGGSEVQLVESGGGLVQPGGSLRLSCAASGFTFSSYAMSWVRQAPGKGLEWVSTINSGTGKPYYADSVKGRFTISRDNSKNTLYLQMNSLRAEDTAVYYCAKNFFDGSWFLAPPAMDYWGQGTLVTVSSHHHHHH
notes: also called 67-AS170036 VL1VH1-57K98F108A
B12: AS170036 VL1VH1-57K98F108D (scFv)
scFv: QSALTQPRSVSGSPGQSVTISCAGTSSDVGSENYVSWYQQHPGKAPKLMIYQVNKRASGVPDRFSGSKSGNTASLTISGLQAEDEADYYCASYRSSDFNIVFGGGTKLTVLGGGGSGGGGSGGGGSEVQLVESGGGLVQPGGSLRLSCAASGFTFSSYAMSWVRQAPGKGLEWVSTINSGTGKPYYADSVKGRFTISRDNSKNTLYLQMNSLRAEDTAVYYCAKNFFDGSWFLDPPAMDYWGQGTLVTVSSHHHHHH
notes: also called 68-AS170036 VL1VH1-57K98F108D

What was measured:
[1] = biological target: T1, AFP158/HLA-A*02:01 complex (human); test: SPR, fold vs AS170036 VL1VH1;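 also: crude scFv muteins immobilised on a sensor chip, peptide–MHC complex passed over at several concentrations, binding then buffer-driven dissociation, KD estimated from on- and off-rates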
T1 construct: flowed as analyte in SPR
Experimental: (§1) The experiment was carried out as follows. The crude scFv protein were captured onto the sensorchip. Different concentrations (320, 160, 40 nM) of AFP158/HLA-A*02:01 complex flowed over the sensorchip surface, and were allowed to bind the antibody fragment for 100 s followed by injection of the running buffer to allow dissociation of the complex. On-rate (kd) and off-rate (kd) were calculated based on association and dissociation curve, and were used to estimate the equilibrium dissociation constant (KD).
(§2) The crude scFv muteins were then subjected to SPR affinity measurement by the method mentioned above.

[2] = biological target: T1, AFP158/HLA-A*02:01 complex; test: SPR, crude scFv captured, pMHC analyte;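 also: complex injected at several concentrations over the chip, association phase then running buffer for dissociation, KD derived from on- and off-rates computed from both curves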
Experimental: as §1, §2

Row | Binder | Affinity increase [1] [fold] | Kd [2] [nM] | koff [2] [s⁻¹] | kon [2] [M⁻¹ s⁻¹]
1 | B1 | 67.4 | 3.3 | 0.00055 | 160000
2 | B2 | 146 | 1.5 | 0.0004 | 260000
3 | B3 | 124 | 1.8 | 0.00053 | 290000
4 | B4 | 66.2 | 3.4 | 0.00068 | 200000
5 | B5 | 67.6 | 3.3 | 0.00076 | 230000
6 | B6 | 45.9 | 4.9 | 0.0012 | 250000
7 | B7 | 26.4 | 8.5 | 0.0014 | 160000
8 | B8 | 128 | 1.8 | 0.00041 | 230000
9 | B9 | 90.7 | 2.5 | 0.00063 | 250000
10 | B10 | 56.3 | 4 | 0.00065 | 160000
11 | B11 | 64.3 | 3.5 | 0.00079 | 230000
12 | B12 | 54.5 | 4.1 | 0.001 | 250000
